± gives the uncertainty stated by the source.
B1: Ankyrin-1, residues 1405 to 1484; numbered along this chain, P16157 (parent)
chain: MKMAVISEHLGLSWAELARELQFSVEDINRIRVENPNSLLEQSVALLNLWVIREGQNANMENLYTALQSIDRGEIVNMLE

Variants of: B1
Experiment: abundance fitness (aPCA) (normalised: wild type 0, dead -1); higher = more abundant; growth selection in yeast, the domain comes from the species named
Conditions: Homo sapiens

Row | Variant | abundance fitness
1 | MKMAVISEHLGLSWAELARELQFSVECINRIRVENPNSLLEQSVALLNLWVIREGQNANMENLYTALQSIDRGEIVNMLE | -0.063 ± 0.15
2 | MKMAVISEHLGLSWAELARELQFSVEEINRIRVENPNSLLEQSVALLNLWVIREGQNANMENLYTALQSIDRGEIVNMLE | -0.08 ± 0.069
3 | MKMAVISEHLGLSWAELARELQFSVEFINRIRVENPNSLLEQSVALLNLWVIREGQNANMENLYTALQSIDRGEIVNMLE | -0.436 ± 0.2
4 | MKMAVISEHLGLSWAELARELQFSVEGINRIRVENPNSLLEQSVALLNLWVIREGQNANMENLYTALQSIDRGEIVNMLE | -0.573 ± 0.081
5 | MKMAVISEHLGLSWAELARELQFSVEHINRIRVENPNSLLEQSVALLNLWVIREGQNANMENLYTALQSIDRGEIVNMLE | -0.121 ± 0.17
6 | MKMAVISEHLGLSWAELARELQFSVEIINRIRVENPNSLLEQSVALLNLWVIREGQNANMENLYTALQSIDRGEIVNMLE | -0.043 ± 0.094
7 | MKMAVISEHLGLSWAELARELQFSVEKINRIRVENPNSLLEQSVALLNLWVIREGQNANMENLYTALQSIDRGEIVNMLE | -0.508 ± 0.15
8 | MKMAVISEHLGLSWAELARELQFSVELINRIRVENPNSLLEQSVALLNLWVIREGQNANMENLYTALQSIDRGEIVNMLE | -0.429 ± 0.077
9 | MKMAVISEHLGLSWAELARELQFSVEMINRIRVENPNSLLEQSVALLNLWVIREGQNANMENLYTALQSIDRGEIVNMLE | -0.213 ± 0.14
10 | MKMAVISEHLGLSWAELARELQFSVENINRIRVENPNSLLEQSVALLNLWVIREGQNANMENLYTALQSIDRGEIVNMLE | -0.49 ± 0.22
11 | MKMAVISEHLGLSWAELARELQFSVEPINRIRVENPNSLLEQSVALLNLWVIREGQNANMENLYTALQSIDRGEIVNMLE | -0.822 ± 0.23
12 | MKMAVISEHLGLSWAELARELQFSVERINRIRVENPNSLLEQSVALLNLWVIREGQNANMENLYTALQSIDRGEIVNMLE | -0.46 ± 0.071
13 | MKMAVISEHLGLSWAELARELQFSVESINRIRVENPNSLLEQSVALLNLWVIREGQNANMENLYTALQSIDRGEIVNMLE | -0.127 ± 0.058
14 | MKMAVISEHLGLSWAELARELQFSVETINRIRVENPNSLLEQSVALLNLWVIREGQNANMENLYTALQSIDRGEIVNMLE | -0.236 ± 0.14
15 | MKMAVISEHLGLSWAELARELQFSVEVINRIRVENPNSLLEQSVALLNLWVIREGQNANMENLYTALQSIDRGEIVNMLE | -0.089 ± 0.058
16 | MKMAVISEHLGLSWAELARELQFSVEWINRIRVENPNSLLEQSVALLNLWVIREGQNANMENLYTALQSIDRGEIVNMLE | -0.89 ± 0.15
17 | MKMAVISEHLGLSWAELARELQFSVEYINRIRVENPNSLLEQSVALLNLWVIREGQNANMENLYTALQSIDRGEIVNMLE | -0.597 ± 0.2
18 | MKMAVISEHLGLSWAELARELQFSVEDANRIRVENPNSLLEQSVALLNLWVIREGQNANMENLYTALQSIDRGEIVNMLE | -0.522 ± 0.066
19 | MKMAVISEHLGLSWAELARELQFSVEDCNRIRVENPNSLLEQSVALLNLWVIREGQNANMENLYTALQSIDRGEIVNMLE | -0.198 ± 0.087
20 | MKMAVISEHLGLSWAELARELQFSVEDDNRIRVENPNSLLEQSVALLNLWVIREGQNANMENLYTALQSIDRGEIVNMLE | -0.584 ± 0.43
21 | MKMAVISEHLGLSWAELARELQFSVEDENRIRVENPNSLLEQSVALLNLWVIREGQNANMENLYTALQSIDRGEIVNMLE | -0.627 ± 0.11
22 | MKMAVISEHLGLSWAELARELQFSVEDFNRIRVENPNSLLEQSVALLNLWVIREGQNANMENLYTALQSIDRGEIVNMLE | -0.738 ± 0.22
23 | MKMAVISEHLGLSWAELARELQFSVEDGNRIRVENPNSLLEQSVALLNLWVIREGQNANMENLYTALQSIDRGEIVNMLE | -0.891 ± 0.11

Row | Variant | abundance fitness
24 | MKMAVISEHLGLSWAELARELQFSVEDKNRIRVENPNSLLEQSVALLNLWVIREGQNANMENLYTALQSIDRGEIVNMLE | -0.686 ± 0.18
25 | MKMAVISEHLGLSWAELARELQFSVEDLNRIRVENPNSLLEQSVALLNLWVIREGQNANMENLYTALQSIDRGEIVNMLE | -0.529 ± 0.083
26 | MKMAVISEHLGLSWAELARELQFSVEDMNRIRVENPNSLLEQSVALLNLWVIREGQNANMENLYTALQSIDRGEIVNMLE | -0.341 ± 0.13
27 | MKMAVISEHLGLSWAELARELQFSVEDPNRIRVENPNSLLEQSVALLNLWVIREGQNANMENLYTALQSIDRGEIVNMLE | -0.58 ± 0.14
28 | MKMAVISEHLGLSWAELARELQFSVEDQNRIRVENPNSLLEQSVALLNLWVIREGQNANMENLYTALQSIDRGEIVNMLE | -0.577 ± 0.22
29 | MKMAVISEHLGLSWAELARELQFSVEDRNRIRVENPNSLLEQSVALLNLWVIREGQNANMENLYTALQSIDRGEIVNMLE | -0.571 ± 0.071
30 | MKMAVISEHLGLSWAELARELQFSVEDSNRIRVENPNSLLEQSVALLNLWVIREGQNANMENLYTALQSIDRGEIVNMLE | -0.797 ± 0.11
31 | MKMAVISEHLGLSWAELARELQFSVEDTNRIRVENPNSLLEQSVALLNLWVIREGQNANMENLYTALQSIDRGEIVNMLE | -0.43 ± 0.11
32 | MKMAVISEHLGLSWAELARELQFSVEDVNRIRVENPNSLLEQSVALLNLWVIREGQNANMENLYTALQSIDRGEIVNMLE | -0.1 ± 0.051
33 | MKMAVISEHLGLSWAELARELQFSVEDYNRIRVENPNSLLEQSVALLNLWVIREGQNANMENLYTALQSIDRGEIVNMLE | -0.485 ± 0.2
34 | MKMAVISEHLGLSWAELARELQFSVEDIARIRVENPNSLLEQSVALLNLWVIREGQNANMENLYTALQSIDRGEIVNMLE | -0.062 ± 0.052
35 | MKMAVISEHLGLSWAELARELQFSVEDICRIRVENPNSLLEQSVALLNLWVIREGQNANMENLYTALQSIDRGEIVNMLE | -0.184 ± 0.12
36 | MKMAVISEHLGLSWAELARELQFSVEDIDRIRVENPNSLLEQSVALLNLWVIREGQNANMENLYTALQSIDRGEIVNMLE | 0.041 ± 0.079
37 | MKMAVISEHLGLSWAELARELQFSVEDIERIRVENPNSLLEQSVALLNLWVIREGQNANMENLYTALQSIDRGEIVNMLE | -0.05 ± 0.067
38 | MKMAVISEHLGLSWAELARELQFSVEDIFRIRVENPNSLLEQSVALLNLWVIREGQNANMENLYTALQSIDRGEIVNMLE | -0.376 ± 0.14
39 | MKMAVISEHLGLSWAELARELQFSVEDIGRIRVENPNSLLEQSVALLNLWVIREGQNANMENLYTALQSIDRGEIVNMLE | -0.133 ± 0.049
40 | MKMAVISEHLGLSWAELARELQFSVEDIHRIRVENPNSLLEQSVALLNLWVIREGQNANMENLYTALQSIDRGEIVNMLE | -0.37 ± 0.2
41 | MKMAVISEHLGLSWAELARELQFSVEDIIRIRVENPNSLLEQSVALLNLWVIREGQNANMENLYTALQSIDRGEIVNMLE | -0.123 ± 0.16
42 | MKMAVISEHLGLSWAELARELQFSVEDIKRIRVENPNSLLEQSVALLNLWVIREGQNANMENLYTALQSIDRGEIVNMLE | 0.021 ± 0.1
43 | MKMAVISEHLGLSWAELARELQFSVEDILRIRVENPNSLLEQSVALLNLWVIREGQNANMENLYTALQSIDRGEIVNMLE | -0.127 ± 0.059
44 | MKMAVISEHLGLSWAELARELQFSVEDIMRIRVENPNSLLEQSVALLNLWVIREGQNANMENLYTALQSIDRGEIVNMLE | -0.075 ± 0.068
45 | MKMAVISEHLGLSWAELARELQFSVEDIPRIRVENPNSLLEQSVALLNLWVIREGQNANMENLYTALQSIDRGEIVNMLE | -0.952 ± 0.22
46 | MKMAVISEHLGLSWAELARELQFSVEDIQRIRVENPNSLLEQSVALLNLWVIREGQNANMENLYTALQSIDRGEIVNMLE | -0.041 ± 0.077

Row | Variant | abundance fitness
47 | MKMAVISEHLGLSWAELARELQFSVEDIRRIRVENPNSLLEQSVALLNLWVIREGQNANMENLYTALQSIDRGEIVNMLE | -0.007 ± 0.048
48 | MKMAVISEHLGLSWAELARELQFSVEDISRIRVENPNSLLEQSVALLNLWVIREGQNANMENLYTALQSIDRGEIVNMLE | -0.156 ± 0.062
49 | MKMAVISEHLGLSWAELARELQFSVEDITRIRVENPNSLLEQSVALLNLWVIREGQNANMENLYTALQSIDRGEIVNMLE | -0.005 ± 0.082
50 | MKMAVISEHLGLSWAELARELQFSVEDIVRIRVENPNSLLEQSVALLNLWVIREGQNANMENLYTALQSIDRGEIVNMLE | -0.213 ± 0.054
51 | MKMAVISEHLGLSWAELARELQFSVEDIWRIRVENPNSLLEQSVALLNLWVIREGQNANMENLYTALQSIDRGEIVNMLE | -0.148 ± 0.051
52 | MKMAVISEHLGLSWAELARELQFSVEDIYRIRVENPNSLLEQSVALLNLWVIREGQNANMENLYTALQSIDRGEIVNMLE | -0.484 ± 0.16
53 | MKMAVISEHLGLSWAELARELQFSVEDINAIRVENPNSLLEQSVALLNLWVIREGQNANMENLYTALQSIDRGEIVNMLE | -0.215 ± 0.059
54 | MKMAVISEHLGLSWAELARELQFSVEDINCIRVENPNSLLEQSVALLNLWVIREGQNANMENLYTALQSIDRGEIVNMLE | -0.022 ± 0.12
55 | MKMAVISEHLGLSWAELARELQFSVEDINDIRVENPNSLLEQSVALLNLWVIREGQNANMENLYTALQSIDRGEIVNMLE | -0.122 ± 0.11
56 | MKMAVISEHLGLSWAELARELQFSVEDINEIRVENPNSLLEQSVALLNLWVIREGQNANMENLYTALQSIDRGEIVNMLE | -0.292 ± 0.13
57 | MKMAVISEHLGLSWAELARELQFSVEDINFIRVENPNSLLEQSVALLNLWVIREGQNANMENLYTALQSIDRGEIVNMLE | -0.518 ± 0.18
58 | MKMAVISEHLGLSWAELARELQFSVEDINGIRVENPNSLLEQSVALLNLWVIREGQNANMENLYTALQSIDRGEIVNMLE | -0.236 ± 0.05
59 | MKMAVISEHLGLSWAELARELQFSVEDINHIRVENPNSLLEQSVALLNLWVIREGQNANMENLYTALQSIDRGEIVNMLE | -0.081 ± 0.22
60 | MKMAVISEHLGLSWAELARELQFSVEDINIIRVENPNSLLEQSVALLNLWVIREGQNANMENLYTALQSIDRGEIVNMLE | -0.356 ± 0.2
61 | MKMAVISEHLGLSWAELARELQFSVEDINKIRVENPNSLLEQSVALLNLWVIREGQNANMENLYTALQSIDRGEIVNMLE | 0.054 ± 0.12
62 | MKMAVISEHLGLSWAELARELQFSVEDINLIRVENPNSLLEQSVALLNLWVIREGQNANMENLYTALQSIDRGEIVNMLE | -0.213 ± 0.057
63 | MKMAVISEHLGLSWAELARELQFSVEDINNIRVENPNSLLEQSVALLNLWVIREGQNANMENLYTALQSIDRGEIVNMLE | -0.134 ± 0.071
64 | MKMAVISEHLGLSWAELARELQFSVEDINPIRVENPNSLLEQSVALLNLWVIREGQNANMENLYTALQSIDRGEIVNMLE | -1.1 ± 0.21
65 | MKMAVISEHLGLSWAELARELQFSVEDINQIRVENPNSLLEQSVALLNLWVIREGQNANMENLYTALQSIDRGEIVNMLE | -0.049 ± 0.072
66 | MKMAVISEHLGLSWAELARELQFSVEDINSIRVENPNSLLEQSVALLNLWVIREGQNANMENLYTALQSIDRGEIVNMLE | -0.139 ± 0.062
67 | MKMAVISEHLGLSWAELARELQFSVEDINTIRVENPNSLLEQSVALLNLWVIREGQNANMENLYTALQSIDRGEIVNMLE | -0.226 ± 0.086
68 | MKMAVISEHLGLSWAELARELQFSVEDINVIRVENPNSLLEQSVALLNLWVIREGQNANMENLYTALQSIDRGEIVNMLE | -0.192 ± 0.055
69 | MKMAVISEHLGLSWAELARELQFSVEDINWIRVENPNSLLEQSVALLNLWVIREGQNANMENLYTALQSIDRGEIVNMLE | -0.328 ± 0.076

From the Human Domainome abundance scans (Beltran et al. 2025)
